From patent publication US20100160228A1 (VALTION TEKNILLINEN TUTKIMUSKESKUS, published 2010) come the findings set out here.

The assay concerns the target T1, VEGFR1, stably expressed in PAE cells (PAE-Flt1) (UniProt P17948 27-1338, limits assumed).
T1 construct: whole, on cells
Briefly: co-immunoprecipitation with anti-TCPTP from PAE-Flt1 cells transfected with the substrate-trapping mutant, immunoblot. In general terms: In western blotting, separated proteins are transferred to a membrane and probed.

T1 sequence (P17948 27-1338 limits assumed): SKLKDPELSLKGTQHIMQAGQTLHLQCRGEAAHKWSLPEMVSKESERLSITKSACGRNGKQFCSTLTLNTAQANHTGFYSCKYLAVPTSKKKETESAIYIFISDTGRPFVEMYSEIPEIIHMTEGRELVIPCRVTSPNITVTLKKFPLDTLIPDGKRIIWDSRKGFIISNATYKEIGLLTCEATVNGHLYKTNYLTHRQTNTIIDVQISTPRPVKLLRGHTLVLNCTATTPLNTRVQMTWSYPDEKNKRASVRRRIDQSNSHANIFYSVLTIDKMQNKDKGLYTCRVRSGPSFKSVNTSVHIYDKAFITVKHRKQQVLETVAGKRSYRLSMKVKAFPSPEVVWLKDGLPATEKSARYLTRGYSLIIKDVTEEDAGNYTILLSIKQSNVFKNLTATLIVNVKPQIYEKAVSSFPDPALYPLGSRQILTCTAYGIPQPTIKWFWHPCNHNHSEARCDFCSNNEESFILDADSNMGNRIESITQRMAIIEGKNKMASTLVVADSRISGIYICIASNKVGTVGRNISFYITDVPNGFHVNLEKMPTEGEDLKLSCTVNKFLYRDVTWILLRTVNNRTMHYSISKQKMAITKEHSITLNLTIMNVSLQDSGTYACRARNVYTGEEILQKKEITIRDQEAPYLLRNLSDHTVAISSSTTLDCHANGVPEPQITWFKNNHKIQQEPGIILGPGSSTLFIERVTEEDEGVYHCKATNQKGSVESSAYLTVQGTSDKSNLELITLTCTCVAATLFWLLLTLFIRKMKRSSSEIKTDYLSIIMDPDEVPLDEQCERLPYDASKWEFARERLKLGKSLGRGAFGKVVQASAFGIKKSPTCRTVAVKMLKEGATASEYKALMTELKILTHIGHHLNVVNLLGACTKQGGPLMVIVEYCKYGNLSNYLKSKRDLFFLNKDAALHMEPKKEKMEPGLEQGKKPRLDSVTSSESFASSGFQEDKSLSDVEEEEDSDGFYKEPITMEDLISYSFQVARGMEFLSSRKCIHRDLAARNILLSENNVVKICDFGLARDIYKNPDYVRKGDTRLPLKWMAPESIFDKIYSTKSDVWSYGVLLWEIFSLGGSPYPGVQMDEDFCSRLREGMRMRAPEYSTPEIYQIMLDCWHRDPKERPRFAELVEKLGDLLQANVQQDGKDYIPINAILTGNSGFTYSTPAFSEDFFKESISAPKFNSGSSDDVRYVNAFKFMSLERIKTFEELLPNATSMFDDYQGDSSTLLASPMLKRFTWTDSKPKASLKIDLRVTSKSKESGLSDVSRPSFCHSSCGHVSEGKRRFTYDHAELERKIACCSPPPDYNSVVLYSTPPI
Description: Immunoprecipitations. […] After washings, the immunocomplexes were resolved on SDS-PAGE and subjected to immunoblotting. Aliquots of the original lysates (5% from IP input) were analyzed in parallel to control for protein expression.

B1: substrate-trapping mutant of TCPTP (TCPTP-D182A) (enzyme, UniProt P17706-2 1-387, looked up)
chain: MPTTIEREFEELDTQRRWQPLYLEIRNESHDYPHRVAKFPENRNRNRYRDVSPYDHSRVKLQNAENDYINASLVDIEEAQRSYILTQGPLPNTCCHFWLMVWQQKTKAVVMLNRIVEKESVKCAQYWPTDDQEMLFKETGFSVKLLSEDVKSYYTVHLLQLENINSGETRTISHFHYTTWPAFGVPESPASFLNFLFKVRESGSLNPDHGPAVIHCSAGIGRSGTFSLVDTCLVLMEKGDDINIKQVLLNMRKYRMGLIQTPDQLRFSYMAIIEGAKCIKGDSSIQKRWKELSKEDLSPAFDHSPNKIMTEKYNGNRIGLEEEKLTGDRCTGLSSKMQDTMEENSESALRKRIREDRKATTAQKVQQMKQRLNENERKRKRPRLTDT
notes: Expressed by transient transfection in HEK293 or PAE-Flt1 cells and immunoprecipitated from lysates with anti-TCPTP; also called pCG-TC45-D182A; T-cell protein tyrosine phosphatase D182A
Take B1: the binding result was “no binding”.
